Data reported in patent US20210002619.

How the values were obtained:
[1] = system: T1, Transactivation domain of FoxM1 (FoxM1 (526-748))
T1 sequence: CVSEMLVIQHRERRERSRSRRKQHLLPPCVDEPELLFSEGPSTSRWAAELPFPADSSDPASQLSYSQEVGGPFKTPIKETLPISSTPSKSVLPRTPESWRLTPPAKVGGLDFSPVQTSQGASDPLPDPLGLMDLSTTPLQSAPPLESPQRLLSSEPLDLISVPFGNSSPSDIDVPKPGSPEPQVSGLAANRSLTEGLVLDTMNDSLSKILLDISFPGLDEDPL

[2] = system: T2, C-terminal domain of the retinoblastoma protein (Rb (771-928))
T2 sequence: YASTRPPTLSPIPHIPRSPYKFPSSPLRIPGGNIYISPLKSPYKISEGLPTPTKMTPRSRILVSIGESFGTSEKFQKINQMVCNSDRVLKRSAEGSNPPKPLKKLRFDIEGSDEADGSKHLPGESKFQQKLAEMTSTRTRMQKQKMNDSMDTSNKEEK

Full-length histone H1, sequence (chain, as listed by the source): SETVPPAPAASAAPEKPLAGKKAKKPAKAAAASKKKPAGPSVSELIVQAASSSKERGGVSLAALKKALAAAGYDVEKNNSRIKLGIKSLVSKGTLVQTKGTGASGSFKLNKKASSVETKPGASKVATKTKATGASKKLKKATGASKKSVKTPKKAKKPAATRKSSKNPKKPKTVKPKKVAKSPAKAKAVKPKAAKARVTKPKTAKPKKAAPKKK

Row | Substance | phosphorylation activity (32P-ATP labeling of substrate) (Full-length histone H1) | phosphorylation activity (32P-ATP labeling of substrate) [1] | phosphorylation activity (32P-ATP labeling of substrate) [2]
1 | Wild-type p27-Cdk4-CycD1 trimeric complex (v) with phosphorylated p27 (wild-type Cdk4) | had phosphorylation activity toward all substrates | had phosphorylation activity toward all substrates | had phosphorylation activity toward all substrates
2 | Wild-type p27-Cdk4-CycD1 trimeric complex (vi) with phosphorylated p27 (Cdk4 variant having T172E substitution) | had phosphorylation activity toward all substrates | had phosphorylation activity toward all substrates | had phosphorylation activity toward all substrates
